{"source": "the nanobody polyreactivity screen of Harvey et al. (2022)"}
{"experiment": "yeast display, Sf9 membrane polyspecificity reagent, FACS + sequencing; frameworks hold sequencing errors", "how_it_was_run": "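Nanobodies from a synthetic yeast display library (Saccharomyces cerevisiae BJ5465), induced 36–48 hours with galactose, were stained 1 hour at 4 °C with 10% biotinylated, detergent-solubilized Sf9 membrane reagent, enriched on streptavidin microbeads, then FACS-sorted. Anti-HA (expression) and streptavidin (reagent binding) fluorescence set low and high (top ~1%) gates. Polyreactivity labels come from the gate of origin. Genes were colony-PCR amplified, MiSeq 2 × 250 sequenced and filtered by CDR length.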"}
{"sequence": "QVQLVESGGGLVQAGGSLRLSCAASGRTFKPYAMGWYRQARGKERELVAAISTRGGSTYYADSVKGRFTISRDNAKNTVYLQMNSLKPEDTAVYYCAATQPGRDYDYWGQGTQVTVSS", "polyreactivity (PSR sort gate)": "low polyreactivity"}
{"sequence": "QVQLVESGGGLVQAGGSLRLSCAASGITFEVYAKGWYRQAPGKERELVAVITSVGSTNYADSVKGRFTISRDNAKNTVYLQMNSLKPEDTAVYYCAAEKWTVRRFNPYTYYRYDYWGQGTQVTVSS", "polyreactivity (PSR sort gate)": "low polyreactivity"}
{"sequence": "QVQLVESGGGLVQAGGSLRLMCAASGSTFRRNAMGWYRQAPGKERELVASISWRAGSTYYADSVKGRFTISRDNAKNTVYLQMNSLKQEDTAVYYCAASYYYYPSWEYEYWGQGTQVTVSS", "polyreactivity (PSR sort gate)": "high polyreactivity"}
{"sequence": "QVQLVESGGGLVQAGGSLRLSCAASGFIFNSYAMGWYRPAPGKERELVAVISWSGGTTYYADSVKGRFTISRDNAKNTVFLQMNSLKPEDTAVYYCAASSYRSQYGYWGQGTQVTVSS", "polyreactivity (PSR sort gate)": "high polyreactivity"}
{"sequence": "QVQLVESGGGLFQAGGSLRLSCAASATTFGVNAMGLYRQATGKERELVAAITVSAGSTYYADSVKGRFTISRDNAQNTVYLQMNSMKPEDSAVYYCAAEEREWRTDIYDYWGQGTQVTVSS", "polyreactivity (PSR sort gate)": "low polyreactivity"}
{"sequence": "QVQLVESGAGLVQAGGRIRLTCAASRSILRGYAMGWYRQAPGKERELVAAITWNGGSTYYADSVKGRFTISRDNANNTVYLHMISLKPEDTAVYYFNRAIGPYSYPDNYWGQGTQVTVSS", "polyreactivity (PSR sort gate)": "high polyreactivity"}
{"sequence": "QVQLVESGGGLVQAGGSLRLSCAASGFIFKSYTMGWYRQAPGKERELVAAITWSGDSTYADSVKGRFTISRDNAKNTVYLQMNSLKPEDTAVYYCAKNYAYLYYSWGQGTQVTVSS", "polyreactivity (PSR sort gate)": "low polyreactivity"}
{"sequence": "QVQLVESGGGLVQAGGSLRLSCAASGITFGYYAMGWSRQAPGKERELVAAISSGGRTNYADSVKGRFTISRDNAKNTVYLQMISLKPEDTAVYYCAASTHHPGYPPDVLYDEYEYWGQGTQVTVSS", "polyreactivity (PSR sort gate)": "low polyreactivity"}
{"sequence": "QVQLVESGGGLVQAGGSLRLSCAASGYTFVYYAMGWYRQAPGKERELVAAITSGGRTNYADSVKGRFTISRDNAKNTVYLQMNSLKPEDTAVYYCARLDYRSVRYGLRGQGTQVTVSS", "polyreactivity (PSR sort gate)": "low polyreactivity"}
{"sequence": "QVQLVESGGRLVQSGGSLRLSCAPSGSIFLRNAMGWYRQAPGKEREFVASITWNGASTSYADSVKGRFTISRDYAMNTVYLQMNSLKPEDTAVYFCAAVTVQDSNLKYGYWGQGTQVTVSS", "polyreactivity (PSR sort gate)": "low polyreactivity"}
{"sequence": "QVQLVESGGGLVQAGGSLRLSCAASGRIFGHYAMGWYRQAPGKERELVAAINWRGGSTYYADSVKGRFTISRDNAKNTVYLQMNSLKPEDTAVYYCAAANFRSYLSQTGPRAYYYWGQGTQVTVSS", "polyreactivity (PSR sort gate)": "low polyreactivity"}
{"sequence": "QVQLVESGGGLVQAGGSLRLSCAASGRIFYYYGMGWYRQAPGKERELVAAISNGGRTYYADSVKGRFTISRDNAKNTVYLQMNSLKPEDTAVYYCAALTRGRGGYDYWGLGTQVTVSS", "polyreactivity (PSR sort gate)": "high polyreactivity"}
{"sequence": "QVQLVESGGGLVQAGGSLRLSCAASGRIFVGYAMGWYRQAPGKERELVAGIRYSGGSTYYADSVKGRFTISRDNAKNTVYLQMNSLKPEDTAVYYCANQVWHYAGRPNYKYDYWGQGTQVTVSS", "polyreactivity (PSR sort gate)": "low polyreactivity"}
{"sequence": "QVQLVESGGGLVQAGGSLRLSCAASGSTFDINAMGWYRQAPGKEWELVAAITWSGDSTYYADSVKGRFTSSRDYAKHTVSLQMNSLKPEDTAVYYCAADYPYSYYEYSSYYYWGQGTQVTVSS", "polyreactivity (PSR sort gate)": "low polyreactivity"}
{"sequence": "QVQLVESGGGLVQAGGSLRLSCAASGFTFGYYAMGWYRQAPGKERELVAAINWSGVNTNYADSVKGRFTISRDNAKNTVYLQMNSLKPEDTAVYYCAADAGYDGYGYWGQGTQVTVSS", "polyreactivity (PSR sort gate)": "low polyreactivity"}
{"sequence": "QVQIVESGGGLVQARGSLLLSSAASGFTSNYYALGWYRHAPGKESELVAAITTGGSTHYADSVKGRFTFSRDNAQNTVYLQLNSLKQVDSAVYYCAAGTNRQQQRYFHNGGYYQYNYWGQGTQVTVSS", "polyreactivity (PSR sort gate)": "low polyreactivity"}
{"sequence": "QVQLVESGGGLVQAGGRLRLSCAASGRTFGYYTMGWYRQAPGKERELVATIRWSGGSTYADSVKGRFTISRDNANNTVYLQMNSLKPEDTAVYYCARRLFSWGAPFGYWGQGTQVTVSS", "polyreactivity (PSR sort gate)": "high polyreactivity"}
{"sequence": "QVQLVESGGGLVQAGGSLRLSCAASGFIFSRNVMGWYRQAPGKERELVAAISRSGGSTYYADSVKGRFTISRDNAKNTVYLQMNSLKTEYTAVYYCAASRINNVYLLKGDYWGQGTQVTVSS", "polyreactivity (PSR sort gate)": "high polyreactivity"}
{"sequence": "QVQLVASGVGLVQAVGSLRLSCAASGITFQYYTMGWYRQAPGKERELVAAINWSGGSTYYADSVKGRFTISRDNAKNTVYLQMNSLKPEDTAVYYCNAVRFVEHDYWGQGTQVTVSS", "polyreactivity (PSR sort gate)": "high polyreactivity"}
{"sequence": "QVQLVESGGGLVQAGGSLRLSCAASGRTFDIYAMGWYRQAPGKERELVADITWSDGTTYYADSVKGRFTISRDNAKNTVYLQMNSLKPEDTAVYYCNAYTVYAYDYWGQGTQVTVSS", "polyreactivity (PSR sort gate)": "low polyreactivity"}
{"sequence": "QVQLVESGGGVVHAGGSLLLSCAASGRTFFRYVKGWYRQEPGKERELVAAISTRGGSTYYADSVKGRFTISRDNAKNTVYLQMNSLKPEDSAVYYCAADVPTGYDYWGQGTQVTVSS", "polyreactivity (PSR sort gate)": "high polyreactivity"}
{"sequence": "QVQLVESGGCLVQAGGSLRLSCAASGFTFGRYAMGWYRQAPGKEREFVAAISYTGTSTYYADSVKGRFTISRDNAKNTVYLQMNSLKPEDTAVYYCNAVHPGTVAYDSWGQGTQVTVSS", "polyreactivity (PSR sort gate)": "high polyreactivity"}
{"sequence": "QVQLVESGGGLVQAGGSLRLSCAASGYIFPSYAMGWYRQAPGKERELVAVITTRGSTYYADSVKGRFTISRDNAKNTVYLQMNSVKAEETAVYYCAAAPYVYWFFVRPYGDDYWGLGTQVTVSS", "polyreactivity (PSR sort gate)": "high polyreactivity"}
{"sequence": "QVQLVESGGGLVQAGGSLRLSCAASGFILGGYAMGWYRQAPGKERELVAAISWSSGSTYYADSVKGRFTISRDNAKNTVYLQMNSLIPEDTAVYYCAAVGAYDYWGQGTQVTVSS", "polyreactivity (PSR sort gate)": "low polyreactivity"}
{"sequence": "QVQHVESGGGLVQAGGSLRLSCAASGSIFTDYAMGWYRQAPGHDRELVAAITLGGNTNYADSVKGRFTISRDNAKHSVYLEMISLLREDTAVYDCATGGYYSAIVYGGYDVWGQGTQVTVSS", "polyreactivity (PSR sort gate)": "low polyreactivity"}
{"sequence": "QVQLVESGGGLVQAGVSHRLSCAASGRTFPGNAMGWYRQAPGKEREFVAAISYSGGRTYYADSVKGRFTISRDNAKNTVYLLMNSLKPEDTAVYYCAKRIVQPSVAAYYYWGLGTQVTVSS", "polyreactivity (PSR sort gate)": "high polyreactivity"}
{"sequence": "QVQLVESGGGLVQAGGSLRLSCAASGSTSTWYAMGWYRQAPGKERELVATITGSGDTTYYADSVKGRFTISRDNAKNTVYLQMNSLKPEDTAVYYCAADYDPDDDTYDYWGQGTQVTVSS", "polyreactivity (PSR sort gate)": "low polyreactivity"}
{"sequence": "QVQLLESGGGLVQAGGSLRLSCAASGSISVAYAMGWYRQAPGKERELVATIRSGDSTYYADSVKGRFTISRDNAKNTVYLQMNSLKPEDTAVYYCNADATDSYPEKDEHDSWGQGTQVTVSS", "polyreactivity (PSR sort gate)": "low polyreactivity"}
{"sequence": "QVQLVESGGGLVQAGGSLRLSCAASGSTFSPYAMVWYRQEPGKERELVAAITWSGGSTYYADSVKGRFTISRDNAKNSVYLQMNSLKPEDTAVYYCNAVPYLSIEYDYWGQGTQVTVSS", "polyreactivity (PSR sort gate)": "high polyreactivity"}
{"sequence": "QVQLVESGGGLVQAGGSLRLSCAASGIIFQNYDMGWYRQAPGKARELVAAITGSGGSTYYADSVKGRFTISRDNAKNTVYLQMNSLKPEDTAVYYCNAVWEYYGKSDYWGQGTQVTVSS", "polyreactivity (PSR sort gate)": "low polyreactivity"}
{"sequence": "QVQLVESGGGLVQAGGSLRLSCAASGRIFYSNAMGWYRQAPGKAWELVATISRRGGRTYSADSVKGRFTLSRDIAKNTVYLQMNSLKPEDTAVYYCNANDRNAGSSRGGRLYDSWGQGTQVTVSS", "polyreactivity (PSR sort gate)": "high polyreactivity"}
{"sequence": "QVQLVESGGGLVQAGGSLRLSCAASGRTFTCYAMGWYRQAPGKERELVATAITSGGSTNYADSVKGRFTISRDNAKNTVYLQMISLKPEDTAVYYCAAVPTEFGNRLEYDYWGQGTQVTVSS", "polyreactivity (PSR sort gate)": "low polyreactivity"}
{"sequence": "QVQLVESGGGLVQAGGSLRLSCAASGRTLEDYVMGWYRQAPGKERELVAAIYWSGVSTYYADSVKGRFTISRDNAKNTVYLQMNSMKPEDTAVYYCAKDSTADELTGFDYWGQGTQVTVSS", "polyreactivity (PSR sort gate)": "low polyreactivity"}
{"sequence": "QVQLVESGGGLVQSGGSLRLSCAASGSTVDDNAMGWSRQAPGQVMELVAAIDTSGGSTYADSVKGRFTISRYNAKNTVYLQMNSQKPEDTAVYYCAKPFSSNSWSHGYWGQGTQVTVSS", "polyreactivity (PSR sort gate)": "low polyreactivity"}
{"sequence": "QVQLVESGGGLVQAGGSLRLSCAASGLTFNYYDMGWYRQAPGKERELVAAISRSGTNTSYADSVKGRFTISRDNAKNTVYLQMNSLKPEDTAVYYCNAAGVYLAAGPFTANFNYNYWGQGTQVTVSS", "polyreactivity (PSR sort gate)": "low polyreactivity"}
{"sequence": "QVQLVESGGGLVQAGGSLRLSCAASGFTFAKNAMGWYRQAPGKERELVATISRSGGSTYYADSVKGRFTLSRDNAKNTVYLQMNSLKREVNAVYYCNKKYNYLYDYWGQGTQVTVSS", "polyreactivity (PSR sort gate)": "high polyreactivity"}
{"sequence": "QVQLVESGGGLVQAGGSLRLSCAASGFTFVYYAMGWYRQAPGKERELVATITRSGDSTYYADSVKGRFTISRDNAKNTVYLQMNSLKPEDTAVYYCAAQPGTASYAGDGDSWGQGTQVTVSS", "polyreactivity (PSR sort gate)": "low polyreactivity"}
{"sequence": "QVQLVESGGGLVQAGGSLRLSCAASGLTFAYYDMGWYRQAPGKERELVAAITSGGTTNYADSVKGRFTISRDNAKNTVYLQMNSLKPEDTAVYYCYADYYSRIVGVRIYDYWGQGTQVTVSS", "polyreactivity (PSR sort gate)": "low polyreactivity"}
{"sequence": "QVQLVESGGGLVLAGGRLRLSCAASGRTFYVYTMGWYRQAPGKEWELVAGISYSGGSTYYADSVMGRFTISRDNAKNTVYLQMNSLKPEDTAVYYCNAELYCPYFDGKTRHGGYWGQGTQVTVSS", "polyreactivity (PSR sort gate)": "low polyreactivity"}
{"sequence": "QVQLVESGGGLVQAGGSLRLSCAASGFIFGYYTMGWYRQAPGKEREVVAAISSSGGRTYYADSVKGRFTISRDNAKNTVYLQMNSLKPEDTAVYYCAKQNRGSEPAYDYWGQGTQVTVSS", "polyreactivity (PSR sort gate)": "low polyreactivity"}
{"sequence": "QVQLAESGGGLVQAGGSLRLSCAASGSIFRLNAMGWYRQAPGKERELVAAINSGTNTYYADSVKGRFTISRDNAKNTVYLQMNSLKPEDTAVYYCAADWNDWHYDYWGQGTQVTVSS", "polyreactivity (PSR sort gate)": "low polyreactivity"}
